Experimental data: patent US20230235058A1 (OXFORD UNIVERSITY INNOVATION, published 2023)
Substitutions are numbered along the chain they refer to. Names may count otherwise.

B1: 4H4 (antibody, IgG1, V domains shown)
VH: QVQLQQSGAELARPGASVKLSCKASGYTFTSYGISWVKQRTGQGLEWIGEIYPRSGNTYYNEKFKGKATLTADKSSSTAYMELRSLTSEDSAVYFCARRRGAGDGFDYWGQGTTLTVSS
VL: DIQMTQTTSSLSASLGDRVTISCSASQGISNYLNWYQQKPDGTVKLLIYYTSSLHSGVPSRFSGSGSGTDYSLTISNLEPEDIATYYCQQYSKLPFTFGSGTKLEIK
notes: mIgG1
B2: 4B1 (antibody, IgG1, V domains shown)
VH: B1 VH with K19R, I34L, S35I, V37L, N57S, K63W, S77N, Y80F, A102T, T114I
VL: B1 VL with S92I, K93E
notes: mIgG1
B3: 8B4 (antibody, IgG1, V domains shown)
VH: B1 VH with S21P, N57T, R100I, G101S, A102S, D104S, F106V
VL: B1 VL with K93E, F96W, S100G
notes: mIgG1
B4: 21C7 (antibody, IgG1, V domains shown)
VH: QIQLQQSGPELVKPGASVKISCKASGYAFSSSWMNWVKKRPGKGLEWIGRIYPGDGDANYNGKFKGKATLTADKSSSTAYMQLSSLTSEDSAVYFCAGEGHYYGSGYRWYLDVWGTGTTVTVSS
VL: DIQMTQSPASLSVSVGETVTITCRASENIYSNLAWYQQKQGKSPQLLVYAATNLADGVPSRFSGSGSGTQYSLKINSLQSEDFGSYYCQHFRGAPFTFGSGTKLEIK
notes: mIgG1
B5: 7A1 (antibody, IgG1, V domains shown)
VH: QVQLQQSGPELVKPGASVKISCKASGYAFSSSWMNWVKQRPGKGLEWIGRIYPGDGDTNYNGKFKGKATLTADKSSSTAYMQLSSLTSEDSAVYFCARRGYGYLAYWGQGTLVTVSA
VL: DIVMTQSHKFMSTSVGDRVSITCKASQDVSTAVAWYQQKPGQSPKLLIYSASYRYTGVPDRFTGSGSGTDFTFTISSVQAEDLAVYYCQQHYSTPWTFGGGTKLEIK
notes: mIgG1
B6: 15C6 (antibody, IgG1, V domains shown)
VH: B5 VH
VL: B5 VL with W96Y
notes: mIgG1
B7: 12F11 (antibody, IgG1, V domains shown)
VH: EVQLQQSGPELVKPGASVKISCKASGYTFTDYYMNWVKQSHGKSLEWIGDINPNNGGTSYNQKFKGKATLTVDKSSSTAYMELRSLTSEDSAVYYCARWRQLRSDYWGQGTTLTVSS
VL: DIQMTQSPASQSASLGESVTITCLASQTIGTWLAWYQQKPGKSPQLLIYAATSLADGVPSRFSGSGSGTKFSFKISSLQAEDFVSYYCQQLYSTPLTFGAGTKLELK
notes: mIgG1
B8: 10B1 (antibody, IgG1, V domains shown)
VH: B1 VH with R99N, R100Y, A102S, G103S, D104Y, G105P, D107A, T114L, L115V, S119A
VL: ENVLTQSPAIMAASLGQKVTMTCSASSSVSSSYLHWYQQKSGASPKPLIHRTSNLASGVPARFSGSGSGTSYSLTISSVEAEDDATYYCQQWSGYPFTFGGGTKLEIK
B9: 16E1 (antibody, IgG1, V domains shown)
VH: B1 VH with R99G, R100Y, A102S, G103S, D104Y, D107A, T114L, L115V, S119A
VL: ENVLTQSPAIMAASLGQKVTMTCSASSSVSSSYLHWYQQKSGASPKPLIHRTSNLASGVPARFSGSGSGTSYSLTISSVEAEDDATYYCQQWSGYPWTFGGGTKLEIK
B10: 15B6 (antibody, IgG1, V domains shown)
VH: QVQLQQPGAELVKPGASVKLSCKASGYTFTSYWMHWVKQRPGQGLEWIGMIHPNSGSTNYNEKFKSKATLTVDKSSSTAYMQLSSLTSEDSAVYYCARKRGGLGDYWGQGTSVTVSS
VL: DIVLTQSPASLAVSLGQRATISCRASKSVSTSGYSYMHWYQQKPGQPPKLLIYLASNLESGVPARFSGSGSGTDFTLNIHPVEEEDAATYYCQHSRELPYTFGGGTKLEIK
B11: 3A9 (antibody, IgG1, V domains shown)
VH: QVQLKQSGAELVRPGASVKLSCKASGYTFTDYYINWVKQRPGQGLEWIARIYPGSGNTYYNEKFKGKATLTAEKSSSTAYMQLSSLTSEDSAVYFCARGYGNSDYWGQGTTLTVSS
VL: DILLTQSPAILSVSPGERVSFSCRASQSIGTRIHWYQQRTNGSPRLLIKYASESISGIPSRFSGSGSGTDFTLSINSVESEDIADYYCQQSNSWPYTFGGGTKLEIK
notes: mIgG1
B12: 11.5.1 D265A (antibody, V domains shown)
VH: EVQLQESGPSLVKPSQTLSLTCSVTGDSITSAYWNWIRKFPGNKLEYMGYISYSGSTYFNPSLKSRISITRNTSKNQYYLQLNSVTTEDTATYYCARSHYYGYYFDYWGHGTTLTVSS
VL: DIVLTQSPASLAVSLGQRATISCRASETIDSYGDSLMHWYQQKAGQPPKLLIYRASNLESGIPARFSGSGSRTDFTLTINPVEADDVATYYCQQTDEDPYTFGGGTKLEIK
B13: 831 (antibody, IgG1, V domains shown)
VH: DVQLQESGPDLVKPSQSLSVTCTVTGYSITSGYSWHWIRQFPGNKLEWMGYIHYSGSTNYNPSLKSRISITRDTSKNQFFLQLSSVTTEDTATYYCASGPHRYDGVWFAYWGQGTLVTVSS
VL: EIVLTQSPTTMAASPGEKITITCSASSSISSNYLHWYQQKPGFSPKLLIYRTSNLASGVPARFSGSGSGTSYSLTIGTMEAEDVATYYCQQGTNIPLTFGAGTKLEIK
B14: 4D5 (antibody, IgG1, V domains shown)
VH: QIQLVQSGPELKKPGETVKISCKASGYTFTTYGVSWVKQAPGKVLKWMGWINTYSGVPTYADDFKGRFAFSLETSASTAYLQISNLKNEDTATYFCAPVTTILHWYFDVWGTGTTVTVSS
VL: DIQMTQSPSSLSASLGERVSLTCRASQEISGYLSWLQQKPDGTIKRLIYAASTLDSGVPKRFRGSRSGSDYSLTISSLESEDFADYYCLQYASYPFTFGSGTKLEIK
notes: mIgG1
B15: 16F10 (antibody, IgG1, V domains shown)
VH: DVQLQESGPGLVKPSQSLSLTCSVTGYSITSGYYWNWIRQFPGNKLEWMGYISYDGSNNYNPSLKNRISITRDTSKNQFFLKLNSVTTEDTATYYCASIYGNYYAMDYWGQGTSVTVSS
VL: QIVLTQSPAIMSASPGEKVTMTCSASSSVSYMHWYQQKSGTSPKRWIYDTSKLASGVPARFSGSGSGTSYSLTISSMEAEDAATYYCQQWSSNPPTFGSGTKLEIK
notes: mIgG1

biological target: chimeric BTLA of humanised-BTLA mice (human extracellular region, murine transmembrane and signaling … (human; mouse, UniProt Q7TSA3 184-306, limits assumed); test: cell-based or functional assay
For AntiCD3/CD28 (CD4 T cell proliferation) repeat 1 in this document: test concentration or dose not given here.
For AntiCD3/CD28 (CD4 T cell proliferation) repeat 2 in this document: test concentration or dose not given here.
For AntiCD3/CD28 (CD69+ CD4 T cells) repeat 1 in this document: test concentration or dose not given here.
For AntiCD3/CD28 (CD69+ CD4 T cells) repeat 2 in this document: test concentration or dose not given here.

chimeric BTLA of humanised-BTLA mice (human extracellular region, murine transmembrane and signaling …, sequence (Q7TSA3 other isoform, or with tags, fused parts or gaps mutant limits assumed): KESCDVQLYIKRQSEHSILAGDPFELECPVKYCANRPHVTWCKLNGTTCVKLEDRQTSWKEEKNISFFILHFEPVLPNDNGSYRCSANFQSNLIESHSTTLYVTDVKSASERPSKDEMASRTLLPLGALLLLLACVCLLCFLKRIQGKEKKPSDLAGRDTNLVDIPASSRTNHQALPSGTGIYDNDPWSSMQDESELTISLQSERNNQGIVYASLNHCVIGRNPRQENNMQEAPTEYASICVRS

Binder	AntiCD3/CD28 (CD4 T cell proliferation) repeat 1 [% inhibition]	AntiCD3/CD28 (CD4 T cell proliferation) repeat 2 [% inhibition]	AntiCD3/CD28 (CD69+ CD4 T cells) repeat 1 [% inhibition]	AntiCD3/CD28 (CD69+ CD4 T cells) repeat 2 [% inhibition]	MLR (CD4 T cell proliferation) repeat 1 [% inhibition]	MLR (CD4 T cell proliferation) repeat 2 [% inhibition]
B1	14	22	43	52	10	17
B2	14	18	47	41	33	30
B3	20	4	51	47	33	23
B4	10	-4	39	35	8	17
B5	14	17	28	38	23	29
B6	2	-2	12	19	19	8
B7	5	9	30	40	28	23
B8	8	14	24	36	16	25
B9	4	8	9	23	33	8
B10	9	16	13	20	7	13
B11	9	9	22	34	7	24
B12	-3	-9	-47	-26	-3	1
B13	10	8	50	53	25	34

biological target: full length human BTLA expressed on cells (human, UniProt Q7Z6A9 31-289); test: cell-based or functional assay

Binder	T cell reporter (NFκB signaling) [% inhibition]
B1	25
B2	23
B3	24
B4	23
B5	20
B6	9
B7	30
B8	27
B9	22
B10	21
B11	27
B12	-13
B13	24

biological target: T1, monomeric soluble human BTLA extracellular domain (BTLA K31-R151) (human, UniProt Q7Z6A9 31-151); test: SPR 37C, mAb captured, BTLA ECD analyte;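 also: Anti-BTLA mouse antibodies captured on a sensor chip via polyclonal anti-mouse IgG, isotype control antibody in reference channel, rates fitted after reference and blank subtraction to derive Kd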
T1 construct: also called hBTLA; monomeric BTLA
Procedure: Mouse antibody capture kit (GE Healthcare) was used to coat a Series S CMS Sensor Chip (GE Healthcare) with polyclonal anti-mouse IgG. Anti-BTLA antibody was then captured onto the biosensor surface and a negative control antibody (clone Mopc21; Biolegend) captured in the reference channel. […] Association and dissociation rates were fitted using BiaEvaluation Software (GE Healthcare) after reference and blank subtractions, and dissociation constants were calculated (FIG. 1b).

Binder	Kd [nM]	koff [s⁻¹]	kon [M⁻¹ s⁻¹]
B1	1710	0.347	203000
B2	3.21	0.00185	577000
B3	8.17	0.0044	538000
B4	43.6	0.0406	930000
B5	40.2	0.0166	413000
B6	718	0.138	193000
B7	722	0.155	215000
B11	4010	1.63	406000
B14	2930	0.79	270000
B15	48.8	0.0283	581000
